Experiment [1] concerns the target T1, recombinant human TFPI (tissue factor pathway inhibitor) (human, UniProt P10646 29-304). Briefly: cell-based or functional assay.
In experiment [2] the target is T1, recombinant human TFPI (tissue factor …). Briefly: cell-based or functional assay. This is another data set of the same source.
Experiment [3] has the same target. Briefly: cell-based or functional assay. The source holds these as a separate data set.
Experiment [4] shares this target. Briefly: SPR, Biacore T-200; TFPI immobilised on CM5 chip, IgG as analyte. As for the experimental part:
10 mM of glycine-HCl (pH 1.5) was run at a flow rate of 30 μL/min for 30 seconds, thereby inducing the dissociation of the antibody associated with the TFPI. The affinity in terms of kinetic rate constants (Kₒₙ and Koff) and equilibrium dissociation constant
Background: SPR reads the build-up and loss of mass on a sensor chip optically.

Experiment [5] has the same target. Briefly: yeast-display scFv, FACS with biotinylated TFPI. As for the experimental part:
The finally amplified single colonies were collected from the yeast display library, and then cultured in SD medium at 30° C. at 200 rpm for 12 hours. Then, the medium was replaced with SG medium, and the cells were cultured at 25° C. at 200 rpm for 12 hours or more, thereby expressing the antibody on the yeast surface. Next, the yeast cells recovered by centrifugation were washed with PBSF (1% BSA containing PBS) buffer, resuspended in 50 μl of PBSF buffer, and then incubated with a biotin-conjugated recombinant human TFPI protein and anti-c-myc mouse antibody (CAT. No. M4439, Sigma) at room temperature for 30 minutes. The incubated yeast cells were washed with PBSF, resuspended in 50 μl of PBSF buffer, and then incubated with FITC-conjugated anti-mouse antibody (CAT. No. F0257, Sigma) and PE-conjugated streptavidin on ice under a light-shielded condition for 15 minutes. Next, the cells were washed with PBSF buffer, resuspended in 500 μl of PBSF buffer, and then clones showing high values in the FITC and PE wavelength ranges were selected by FACS, thereby obtaining individual clones.

Numbering of substitutions follows the chain as printed.

B1: clone 308-2 (antibody, V domains shown)
VH: EVQLVESGGGLVKPGGSLRLSCAASGFTFSSYAMNWVRQAPGKGLEWVSTITTGGSYTYYADSVQGRFTISRDNAKNSLYLQMNSLRAEDTAVYYCARQDGNFLMDYWGQGTLVTVSS
VL: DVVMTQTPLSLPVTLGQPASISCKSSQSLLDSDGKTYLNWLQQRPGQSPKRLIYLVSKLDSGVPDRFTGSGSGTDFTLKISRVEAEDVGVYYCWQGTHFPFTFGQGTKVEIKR
By Kd is commonly meant the free concentration of one partner at which half of the binding sites on the other are occupied at equilibrium, for simple one-to-one binding. Take B1: in experiment [1], the “TFPI inhibitory activity, FXa activity assay, Ab 10 nM” value came to 72%; the “TFPI inhibitory activity, FXa activity assay, Ab 40 nM” value is 85%; the “TFPI inhibitory activity, TF/FVIIa/FXa complex assay, Ab 50 nM” value was 100%; the “TFPI inhibitory activity, TF/FVIIa/FXa complex assay, Ab 100 nM” value came out at 100%. Also, in experiment [2], the “FXa assay % of FXa alone, 0.625 nM Ab, 10 nM TFPI” value stood at 5%; the “FXa assay % of FXa alone, 2.5 nM Ab, 10 nM TFPI” value was 8%; the “FXa assay OD, 0.625 nM Ab, 10 nM TFPI” value was determined as 0.053 OD; the “FXa assay OD, 2.5 nM Ab, 10 nM TFPI” value came out at 0.078 OD. In experiment [2], the “FXa assay OD, 10 nM Ab, 10 nM TFPI” value amounted to 0.71 OD and the “FXa assay OD, 40 nM Ab, 10 nM TFPI” value is 0.832 OD. Further, in experiment [3], the “TF/FVIIa/FXa assay % of 0 nM TFPI, 12.5 nM Ab, 50 nM TFPI” value amounted to 18.5%; the “TF/FVIIa/FXa assay % of 0 nM TFPI, 50 nM Ab, 50 nM TFPI” value worked out at 102%; the “TF/FVIIa/FXa assay % of 0 nM TFPI, 100 nM Ab, 50 nM TFPI” value is 110%; the “TF/FVIIa/FXa assay OD, 12.5 nM Ab, 50 nM TFPI” value came to 0.148 OD. In experiment [3], the “TF/FVIIa/FXa assay OD, 25 nM Ab, 50 nM TFPI” value was found to be 0.303 OD; the “TF/FVIIa/FXa assay OD, 50 nM Ab, 50 nM TFPI” value came to 0.816 OD; the “TF/FVIIa/FXa assay OD, 100 nM Ab, 50 nM TFPI” value turned out to be 0.88 OD. Moreover, in experiment [4], the Kd amounted to 0.033 nM.

B2: clone 4011 (antibody, V domains shown)
VH: B1 VH with S30Y, Y57H, Q65E
VL: DVVMTQTPLSLPVTLGQPASISCKSSQSLLDVDGKTYLNWLQQRPGQSPKRLIYLVSKLDSGVPDRFTGSGSGTDFTLKISRVEAEDVGVYYCWQGTHLPFTFGQGTKVEIKR
notes: scFv on yeast at selection; human IgG4/kappa IgG as purified
Turning to B2, in experiment [5], the binding result was “binds”.

B3: clone 1223 (antibody, V domains shown)
VH: B1 VH with Q65E, N102H
VL: B2 VL with V32I, L99F
notes: as for B2
Turning to B3, in experiment [5], the binding result is recorded as “binds”.

B4: clone 4041 (antibody, V domains shown)
VH: B1 VH with N35S, Y57H, Q65E, N102Y
VL: B2 VL with L99F
notes: as for B2
For the molecule B4, the binding result in experiment [5] is recorded as “binds”.

B5: clone 4034 (antibody, V domains shown)
VH: B1 VH with Y57H, Q65E, N102Y
VL: B2 VL with V32I, L99F
notes: as for B2
Consider B5, for which, in experiment [5], the binding result is given as “binds”.

B6: clone 1243 (antibody, V domains shown)
VH: B1 VH with Y57H, Q65H, N102H
VL: B2 VL with V32I, L99F
notes: as for B2
Regarding B6, the binding result in experiment [5] is reported as “binds”.

B7: clone 1232 (antibody, V domains shown)
VH: B1 VH with Q65D, N102H
VL: B2 VL with L99F
notes: as for B2
Regarding B7, the binding result in experiment [5] was “binds”.

B8: clone 1208 (antibody, V domains shown)
VH: B1 VH with Y57H, Q65E, N102H
VL: B2 VL with H98Y
notes: as for B2
On to B8, for which the binding result in experiment [5] is recorded as “binds”.

B9: clone 1248 (antibody, V domains shown)
VH: B1 VH with Y57H, Q65D, N102H
VL: B2 VL with V32I, L99F
notes: as for B2
Consider B9, for which the binding result in experiment [5] is recorded as “binds”.

B10: clone T308 (antibody, human IgG4, V domains shown)
VH: EVKLVESGGGLVKPGGSLKLSCAASGFTFSNYPMSWVRQTPEKRLEWVATISNSGSYTYYPDSVKGRFTISRDNAKNTLYLQMNSLRSEDTAMYYCARQVYGNYEDFDYWGQGTTLTVSS
VL: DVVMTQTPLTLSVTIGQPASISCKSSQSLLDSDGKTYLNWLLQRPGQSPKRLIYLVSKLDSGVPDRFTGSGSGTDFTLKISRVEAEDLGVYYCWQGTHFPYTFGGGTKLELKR
For B10, the “effect of inhibiting TFPI, FXa activity assay, Ab 10 nM” value in experiment [1] is 89%. For the same molecule, the Kd in experiment [4] amounted to 0.0094 nM.

B11: clone 4278 (antibody, V domains shown)
VH: EVQLVESGGGLVKPGGSLRLSCAASGFTFSKYAMNWFRQAPGKGLEWVSTITLGGSYTYYADSVDGRFTISRDNAKNSLYLQMNSLRAEDTAVYYCARQYLDGNFLMDYWGQGTLVTVSS
VL: B2 VL with V32I, L99F
notes: as for B2
For B11, the binding result in experiment [5] is recorded as “binds”.

B12: clone 15 (antibody, V domains shown)
VH: B11 VH with L53T, D65E, Y100H, L101P, D102Y
VL: B2 VL with Q27P, V32S, T97F, H98Y, L99F
notes: human IgG4/kappa IgG as purified
Regarding B12, the binding result in experiment [5] is listed as “binds”.

B13: clone 14 (antibody, V domains shown)
VH: B11 VH
VL: B2 VL with Q27P, V32S, H98Y, L99F
notes: as for B12
Turning to B13, the binding result in experiment [5] is “binds”.
